Like-named read-outs stand apart in the source and are kept apart here.

The target of one experiment is Pin1 WW domain (Homo sapiens, UniProt Q13526). Conditions: For eWW (Pin1 WW); read-out: Affinity if known; cited from earlier work.
For a further experiment, the target named is T1, Grb2-SH2 domain (Homo sapiens, UniProt P62993).
T1 construct: The SH2 domain of Grb2 (“Grb2-SH2” hereafter) is ˜98 residue autonomously folded domain
Conditions: For eSH2 (Grb2); read-out: Affinity if known; cited from earlier work.

For experiment [1], the target named is T2, δ-catenin peptide (PASPDSWV-COOH) (Homo sapiens, UniProt Q9UQB3).
T2 construct: yeast SUMO (N); made in house
Put plainly: Surface plasmon resonance (SPR, BIAcore) analysis of motif binding, δ-catenin peptide. As to conditions: for Kd: SPR; for Specificity Index: ratio of Kd for δ-catenin to Kd for ARVCF. From the text: (§1) Using semi-automated methods, the phage display library was sorted using an eight-residue motif (SEQ ID NO: 148) corresponding to the ARVCF C-terminus. […] The maximal motif/affinity concentrations are indicated. In B, C and F, the on and off rates are also shown on the left and right sides, respectively. […] After four rounds of sorting, two clones with high affinity were identified to the ARVCF peptide motif. ePDZ-a (SEQ ID NO: 149) and ePDZ-b (SEQ ID NO: 150) are thus (referred to as “enhanced PDZ-a” and “enhanced PDZ-b” or simply “ePDZ-a” and “ePDZ-b” respectively) potential affinity clamp candidates.
The binding specificity of the ePDZ clones was investigated. In addition to the ARVCF motif, wild-type erbin PDZ also binds to the C-terminus of δ-catenin with a low μM Kd. The two sequences differ only at positions outside the core recognition motif, DSWV (SEQ ID NO: 69) —COOH (Table 2). The affinity enhancement of ePDZ-a was similar for both targets. Remarkably, the ePDZ-b clone had very weak binding to δ-catenin, similar to the wild-type PDZ domain, showing that ePDZ-b discriminates between the two targets by ˜200 fold. Equally importantly, ePDZ-b discriminates amino acids outside the DSWV-COOH motif shared by the two peptides (Table 2), and thus, it expanded the size of the target motif. The improved specificity is consistent with the molecular affinity clamp design where the enhancer domain binds to the motif surface presented on the PDZ domain and thus can “read” the motif sequence (FIG. C2).
(In general: SPR reads the build-up and loss of mass on a sensor chip optically.)

Experiment [2] has as its target T3, ARVCF peptide (PQPVDSWV-COOH) (Homo sapiens, UniProt O00192).
T3 construct: made in house; host or cells: E. coli
Put plainly: Surface plasmon resonance (SPR, BIAcore) analysis of motif binding, ARVCF peptide. Conditions: for koff / kon: for the ARVCF peptide; for Affinity Enhancement: ratio of Kd of parent protein (cpPDZFN) for ARVCF to that of the affinity clamp.
Text: as §1
These two clones were characterized as soluble proteins.
One method to improve affinity of the affinity clamp is to improve the interaction interface of the enhancer domain (e.g. the FN3 domain). […] The two second-generation variants, ePDZ-b1 (SEQ ID NO: 151) and ePDZ-b2 (SEQ ID NO: 143), were prepared as protein samples and their binding properties were analyzed using SPR. […] The affinity enhancement primarily originated from reduced dissociation rates.
A disulfide-constrained peptide was used as an enhancer domain. A peptide-PDZ affinity clamp was designed in which the diversified peptide segment was N-terminal connected to the circularly permutated PDZ domain (cpPDZ) described above. (See, FIG. F1 showing an affinity clamp constructed with Cys-constrained peptide as an enhancer domain in which (A) is a schematic drawing of the affinity clamp. Note that the peptide is attached to the N-terminus of the interaction domain. (B, C) are saturation curves of the parent PDZ (B) and peptide-PDZ Affinity Clamp (C) determined using surface plasmon resonance (SPR). SPR experiments were performed in the equilibrium mode, and the SPR response is plotted as a function of the concentration of the target peptide. The target peptide fused to the yeast SUMO protein was used in these measurements. The curves show the best fit of the 1:1 binding model to the data. The Kd values are also shown.)

In experiment [3] the test system is ARVCF target peptide (SUMO fusion) in E. coli lysate. Put plainly: Pull-down (immunoprecipitation) with biotinylated ePDZ's and streptavidin magnetic beads. In kind it is binding. As to conditions: biotinylated clamp, streptavidin magnetic beads, E. coli lysate/cell extracts. From the text: (§2) The PDZ-FN3 affinity clamps functioned well in Western blotting and in immunoprecipitation (pull down) assays. […] Lane 6 is a negative control for the secondary, anti-FLAG antibody. In FIG. C6B, pull-down (immunoprecipitation), biotinylated ePDZ's and streptavidin (SA)-magnetic beads were used. The input (I), unbound (U), wash (W) and bound (B) fractions were separated with SDS-PAGE and detected with CBB. Note that this is not Western blotting, which would have given higher sensitivity and specificity. […] Note that most of nonspecific binding is due to the SA-magnetic beads (lane 13). […] It is noted that the relatively low recovery of the target in the pull-down assays may be due to the fact that the off-rate was optimized for these clamps (FIG. C3).
These Kd values and dissociation rates compare favorably to those for monoclonal antibodies. The reduced dissociation rate of an affinity clamp improves its usefulness in immunochemical applications.

In another experiment the target is T4, ARVCF (Homo sapiens, UniProt O00192).
T4 construct: host or cells: mammalian cell lysate
T4 sequence (O00192 1-962): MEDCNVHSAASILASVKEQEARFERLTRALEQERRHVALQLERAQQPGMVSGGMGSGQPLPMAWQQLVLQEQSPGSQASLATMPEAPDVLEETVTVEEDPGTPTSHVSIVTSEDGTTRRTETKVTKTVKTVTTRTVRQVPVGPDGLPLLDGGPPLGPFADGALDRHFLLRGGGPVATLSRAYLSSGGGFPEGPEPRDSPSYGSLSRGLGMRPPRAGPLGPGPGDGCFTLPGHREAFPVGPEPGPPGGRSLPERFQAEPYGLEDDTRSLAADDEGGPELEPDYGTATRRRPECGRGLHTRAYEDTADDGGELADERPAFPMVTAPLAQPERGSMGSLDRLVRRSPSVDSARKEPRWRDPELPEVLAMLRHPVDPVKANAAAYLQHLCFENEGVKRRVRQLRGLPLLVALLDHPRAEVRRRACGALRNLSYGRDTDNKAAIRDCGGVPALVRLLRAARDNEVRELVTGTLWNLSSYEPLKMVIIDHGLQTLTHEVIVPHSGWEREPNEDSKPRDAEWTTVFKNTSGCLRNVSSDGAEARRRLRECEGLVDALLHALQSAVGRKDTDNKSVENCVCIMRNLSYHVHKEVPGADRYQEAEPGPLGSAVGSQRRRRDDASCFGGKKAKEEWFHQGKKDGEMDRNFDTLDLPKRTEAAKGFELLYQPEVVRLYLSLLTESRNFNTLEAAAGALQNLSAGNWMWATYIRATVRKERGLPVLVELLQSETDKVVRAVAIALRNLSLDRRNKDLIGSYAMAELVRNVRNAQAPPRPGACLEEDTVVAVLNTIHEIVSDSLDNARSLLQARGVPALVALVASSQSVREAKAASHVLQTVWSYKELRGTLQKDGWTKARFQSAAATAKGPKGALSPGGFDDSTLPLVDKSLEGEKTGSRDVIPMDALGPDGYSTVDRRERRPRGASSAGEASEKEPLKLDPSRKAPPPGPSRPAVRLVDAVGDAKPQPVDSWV
Put plainly: Western blotting of ARVCF in mammalian cell lysate. The experiment is classed as binding. Conditions: vs commercial monoclonal antibody. Background: In western blotting, separated proteins are transferred to a membrane and probed.

Experiment [4] concerns the target T5, Ala-substituted ARVCF peptide (positions −7 to −4) (Homo sapiens, UniProt O00192, V958A).
T5 construct: The tested positions are −7 to −4 in the ARVCF peptide (PQPVDSWV-COOH; mutated positions are underlined); yeast SUMO (N)
As to the kind of experiment: Alanine-scanning of the ARVCF peptide by SPR. In kind it is binding. As to conditions: ARVCF peptide mutant. On the procedure: To complement the library sorting experiments described above, Ala-scanning experiments of the ARVCF peptide were performed. When the goal is to define differences in the ability of ePDZ-a and ePDZ-b1 to recognize the differences between the ARVCF and δ-catenin peptides, only those positions that differ between the two peptides are analyzed.
Consistent with the peptide library sorting results, the ePDZ-b family was sensitive to Ala substitution mutations at all positions between −4 and −7. […] The results are shown in terms of changes in free energy change (ΔG=−RT ln(Kd^mutant/Kd^wild type)). […] The tested positions are −7 to −4 in the ARVCF peptide (PQPVDSWV-COOH; mutated positions are underlined). For each mutant, binding affinity was determined using surface plasmon resonance as described previously for the wild-type ARVCF peptide (69).

Experiment [5] concerns SUMO-ARVCF fusion protein. Put plainly: Western blotting of SUMO-ARVCF fusion protein in E. coli lysate. In kind it is binding. As to conditions: E. coli lysate containing 5 nanograms SUMO-ARVCF.
Text: as §2

Another experiment deals with T6, ARVCF peptide (Homo sapiens, UniProt O00192).
T6 construct: made in house; host or cells: E. coli
As to the kind of experiment: IC50 for the ARVCF peptide (Table 4). In kind it is binding.

The mark [6] stands for this setting: Table 4, read-out: Kd [nM] δ-catenin.
[7] abbreviates: Table 4, SPR, read-out: Kd [nM] ARVCF.
[8] abbreviates: Table 2, SPR, read-out: Kd, ARVCF PQPVDSWV

T1 sequence (P62993 60-152 limits assumed): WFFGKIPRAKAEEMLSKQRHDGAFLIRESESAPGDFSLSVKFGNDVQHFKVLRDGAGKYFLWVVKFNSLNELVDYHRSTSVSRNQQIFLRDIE
Sequence of Pin1 WW domain (Q13526 5-39 limits assumed): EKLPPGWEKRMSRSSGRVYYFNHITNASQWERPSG

Turning to VPRpTPV [Cdc25c-T48], the Kd with Pin1 WW domain was 8 µM.

Take VNATpYVNVKCVA [c-MET pY1356]: the Kd in the experiment with Grb2-SH2 domain is 0.2 to 1 µM.

Take PSpYVNVQN [SHC (control)]: in the experiment with Grb2-SH2 domain, the Kd is 0.018 µM.

As to LYRpSPS [Cdc25c-S214], the Kd with Pin1 WW domain is 72 µM.

For STSpTPR [Myt1-T455], the Kd with Pin1 WW domain is 40 µM.

On to YSPTpSPS [Polll-CTD-S5], for which the Kd in the experiment with Pin1 WW domain is 34 µM.

Take PPApTPP [Myt1-T412]: the Kd on Pin1 WW domain was 15 µM.

As to “ePDZ-b2: second-generation affinity-matured variant of ePDZ-b, SEQ ID NO: 143 (SYYGVS)”, in experiment [1] (setting [6]), the Kd is > 10000 nM. Besides, the “Specificity Index” value in experiment [1] is >2500. Moreover, in experiment [2] (setting [7]), the Kd is 4 nM. In [2] (SPR), the koff is on record as <2.9 × 10^−4 S^−1 and the kon is 7.0 × 10^4 M^−1S^−1. The “Affinity Enhancement” value in experiment [2] stood at 6200. Also, in [3], the “capture of target in pull-down (immunoprecipitation)” value is “captured a target peptide from E. coli lysate in a highly specific and quantitative manner”. In the experiment with ARVCF, the “performance in Western blotting” value is on record as “superior to that of a commercially available monoclonal antibody”.

“ePDZ-b1: second-generation affinity-matured variant of ePDZ-b, SEQ ID NO: 151 (HYNYHYYS)”: the “reduction in affinity on Ala substitution at position −4” value in [4] is given as “over 200 fold”. Also, in [1] (setting [6]), the Kd was > 10000 nM. The “Specificity Index” value in [1] is given as >2000. Besides, in [2] (setting [7]), the Kd stood at 5 nM. In experiment [2] (SPR), the koff is <3.7 × 10^−4 S^−1 and the kon is 7.3 × 10^4 M^−1S^−1. Besides, the “Affinity Enhancement” value in experiment [2] was 4960.

For the molecule SPQPEpYVNQPDVR [ErbB2 pY1139], on Grb2-SH2 domain, the Kd is 0.076 µM.

Turning to “wt-PDZ: wild-type PDZ domain of Erbin (SEQ ID NO: 146) (YYDSHVS) [reference compound]”, the “discrimination between ARVCF peptide and δ-catenin peptide” value in experiment [1] is recorded as “almost equally”. In addition, the “dissociation rate (in words)” value in experiment [2] (SPR) is “too fast to measure”. Besides, the Kd in [2] (setting [8]) is ~10000 nM. Besides, the “detection of target in Western blotting” value in [5] is listed as “did not”.

B1: circularly permutated PDZ domain: erbin PDZ with original termini joined by Asn-Gly linker, new termini between residues 20 and 21 (protein)
chain: PELGFSISGGVGGRGNPFRPDDDGIFVTRVQPEGPASKLLQPGDKIIQANGYSFINIEHGQAVSLLKTFQNTVELIIVREVGNGAKQEIRVRVEKD
Turning to B1, the Kd in experiment [2] (SPR equilibrium mode, target peptide fused to yeast SUMO, read-out: dissociation constant (Kd), ARVCF peptide) turned out to be 11000 ± 700 nM.

B2: ePDZ-b: affinity clamp: circularly permutated erbin PDZ fused to engineered FN3, SEQ ID NO: 150, selected for ARVCF peptide (protein)
chain: MKHHHHHHHHHHSSDYKDDDDKGENLYFQGSPELGFSISGGVGGRGNPFRPDDDGIFVTRVQPEGPASKLLQPGDKIIQANGYSFINIEHGQAVSLLKTFQNTVELIIVREVGNGAKQEIRVRVEKDGGSGGVSSVPTNLEVVAATPTSLLISWDAYYDSHVSYYRITYGETGGNSPVQEFTVPGSKSTATISGLKPGVDYTITVYAHYNYHYYSSPISINYRT
In general, IC50 refers to the midpoint of a concentration-inhibition curve. A higher IC50 goes with lower potency. For the molecule B2, the “discrimination between ARVCF peptide and δ-catenin peptide” value in experiment [1] is reported as ~200 fold. Besides, the Kd in [1] (Table 2, read-out: Kd, δ-catenin PASPDSWV) was > 10000 nM; in experiment [1] (setting [6]), > 10000 nM; in experiment [2] (setting [8]), 56 nM; in experiment [2] (setting [7]) it was 56 nM. In addition, the “Specificity Index” value in [1] was >178. For the same molecule, the koff in experiment [2] (SPR) is reported as 1.1 × 10^−2 S^−1. Also, in experiment [2] (SPR), the kon is on record as 1.9 × 10^5 M^−1S^−1. Also, the “Affinity Enhancement” value in experiment [2] turned out to be 520. The 50% inhibitory concentration (IC50) in the experiment with ARVCF peptide turned out to be 0.059 µM. The “detection of target in Western blotting” value in [5] was “detected the target”.

These data come from US9885050B2, “Molecular affinity clamp technology and uses thereof” (The University of Chicago, priority 2007, dated 2018).
